Source: PMC13233326, “Myosin forces remodel F-actin for mechanosensitive protein recognition” (Nature, 2026)

Molecular target: the molecule itself
Test: cryo-EM structure; dual motor condition: GFP-tagged myosin V and myosin VI anchored to a holey carbon grid by an anti-GFP antibody, F-actin applied, then MB-ATP (20 mM MOPS pH 7.4, 5 mM MgCl2, 0.1 mM EGTA, 1 mM DTT, 1 mM ATP, 0.01% NP-40) with α-catenin ABD for 30 s before plunge freezing; 0.6 µM F-actin and 1 µM α-catenin ABD (sub-saturating); consensus map 10.4 Å, 3DVA-sorted map 12.3 Å

B1: C-terminal actin-binding domain (ABD) of human α-catenin (amino acids 664–906) (domain or fragment, UniProt P35221 664-906, looked up)
chain: IAGQSARAIMAQLPQEQKAKIAEQVASFQEEKSKLDAEVSKWDDSGNDIIVLAKQMCMIMMEMTDFTRGKGPLKNTSDVISAAKKIAEAGSRMDKLGRTIADHCPDSACKQDLLAYLQRIALYCHQLNICSKVKAEVQNLGGELVVSGVDSAMSLIQAAKNLMNAVVQTVKASYVASTKYQKSQGMASLNLPAVSWKMKAPEKKPLVKREKQDETQTKIKRASQKKHVNPVQALSEFKAMDSI
notes: the tags were removed with TEV protease; also called α-catenin ABD; αE-catenin ABD; source: E. coli Rosetta2(DE3), purified (Ni-NTA, TEV cleavage, anion exchange, SEC); not shown: His6, N-terminal, cleaved; strep tag, N-terminal, cleaved
binding result: binds
